Data: publication PMC3461361

Biological target: Invasion plasmid antigen B (IpaB) (S. flexneri)
Experiment: native gel or EMSA

“Invasion plasmid antigen B (IpaB) (natural protein)” showed a stoichiometry N greater than 10.
